# Reference: article PMC4457826 (PLoS Pathogens, 2015)
# B1: GST-ICP0 594–775: longer ICP0 peptide corresponding to residues 594–775 (protein)
# chain: AVGALGGRQEETSLGPRAASGPRGPRKCARKTRHAETSGAVPAGGLTRYLPISGVSSVVALSPYVNKTITGDCLPILDMETGNIGAYVVLVDQTGNMATRLRAAVPGWSRRTLLPETAGNHVMPPEYPTAPASEWNSLWMTPVGNMLFDQGTLVGALDFRSLRSRHPWSGEQGASTRDEGKQ
# modifications: left off: GST, end not stated, kept
# What was measured:
# [1] = test system: USP7-CTD mutant D762R/D764R; assay: GST pull-down, USP7-CTD D762R/D764R; assay type: binding, human
# Procedure: (§1) Fragments representing USP7-CTD Ubl domains were prepared using ligation independent cloning with In-Fusion (Clontech) in p15TV-L. The boundaries of the Ubl domain constructs are Ubl12 (535–776), Ubl123 (535–889), Ubl345 (776–1102), Ubl45 (886–1102) and USP7-CTD (535–1102). Plasmids expressing USP7-NTD, USP7, and myc-USP7 WT (pCANmycUSP7) were described previously. USP7 mutants E759A, D762A, D764A and D762A/D764A in Ubl123 were synthesized (Genscript) and inserted into the pET15b plasmid. USP7 mutants E759A, D762A, D764A, D762A/D764A and D762R/D764R in USP7-CTD were prepared by ACGT Corporation. The D762R/D764R mutant was then sub-cloned into wild-type pCANmycUSP7 for co-IP assays. The mammalian ICP0 expression construct pCI-110 ICP0 was obtained from Roger Everett.
# (§2) The ICP0, GMPS and UHRF1 WT and mutant peptides were cloned into pGEX-2TK and expressed in E. coli BL21(DE3). GST-ICP0 594–775 was obtained from Roger Everett. The GST-ICP0 or GST-GMPS or GST-UHRF1 or GST-ICP0 594–775 cell pellets from 500 ml of LB broth were re-suspended with PBS and lysed using sonication. The cleared lysates were applied to 500 μl of equilibrated glutathione-sepharose beads and incubated with rocking for 60 min at 4°C. Unbound proteins were removed by washing with PBS. Bound proteins were eluted with 50 mM Tris pH 8.0 and 100 mM NaCL containing 30 mM reduced glutathione. […]
# [2] = molecular target: T1, USP7-CTD (Homo sapiens, UniProt Q93009); assay: GST pull-down, USP7-CTD; assay type: binding; settings: GST pull-down; GST-ICP0 594–775, GST-GMPS and GST-UHRF1 peptides and mutants; Fig 3H, 4C-F
# T1 construct: USP7-CTD (535–1102); His tag (inferred from nickel-NTA purification; vector p15TV-L); made in house; host or cells: E. coli BL21(DE3)mgk
# Procedure: as §1, §2
# T1 sequence (Q93009 535-1102): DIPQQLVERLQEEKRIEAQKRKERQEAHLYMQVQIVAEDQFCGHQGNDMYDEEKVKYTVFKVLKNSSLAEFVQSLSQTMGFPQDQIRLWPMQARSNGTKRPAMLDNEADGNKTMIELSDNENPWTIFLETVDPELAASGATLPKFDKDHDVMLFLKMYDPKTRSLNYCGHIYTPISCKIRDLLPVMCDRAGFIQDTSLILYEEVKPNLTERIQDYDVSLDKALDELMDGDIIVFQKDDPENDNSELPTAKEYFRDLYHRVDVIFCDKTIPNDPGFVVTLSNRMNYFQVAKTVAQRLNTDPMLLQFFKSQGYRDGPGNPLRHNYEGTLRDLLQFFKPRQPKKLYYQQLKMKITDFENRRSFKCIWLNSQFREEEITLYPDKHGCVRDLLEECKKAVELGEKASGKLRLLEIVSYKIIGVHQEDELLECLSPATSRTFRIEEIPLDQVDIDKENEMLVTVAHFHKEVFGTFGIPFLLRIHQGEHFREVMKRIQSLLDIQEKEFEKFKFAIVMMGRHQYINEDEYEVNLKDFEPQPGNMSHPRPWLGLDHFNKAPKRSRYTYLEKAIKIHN
molecule,measurement,setting,value
B1,Binding to USP7-CTD mutant D762R/D764R,[1],not D762R/D764R USP7-CTD
same,Binding to WT USP7-CTD,[2],interaction was observed
